The values below are quoted from earlier work in article PMC6753016.

Data set [1] addresses Factor XIIa (Homo sapiens) (UniProt P00748).
The target of data set [2] is Trypsin (Bos taurus) (UniProt P00760).
For data set [3], the target named is Plasmin (Homo sapiens) (UniProt P00747).
In data set [4] the target is Chymotrypsin (Bos taurus) (UniProt P00766).
In data set [5] the target is Cathepsin G (Homo sapiens) (UniProt P08311).
Data set [6] concerns the target Cathepsin L (UniProt P07711).
Target sequence in this assay (P07711 114-288, chain 1 of 2): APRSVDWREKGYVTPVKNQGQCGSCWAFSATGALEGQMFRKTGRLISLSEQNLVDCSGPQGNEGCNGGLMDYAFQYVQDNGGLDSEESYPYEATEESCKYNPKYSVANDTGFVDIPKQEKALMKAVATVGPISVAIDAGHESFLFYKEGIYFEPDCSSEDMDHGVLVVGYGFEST
Target sequence in this assay (P07711 292-333, chain 2 of 2): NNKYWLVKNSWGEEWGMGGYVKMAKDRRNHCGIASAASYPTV
Data set [7] concerns the target Leukocyte elastase (UniProt P08246).
For data set [8], the target named is Pancreatic elastase (Sus scrofa) (UniProt P00772).
Data set [9] addresses Cathepsin L (UniProt P07711). The source holds these as a separate data set.
Target sequence in this assay (P07711 292-333): as the sequence (P07711 292-333, chain 2 of 2) above
The target of data set [10] is Factor XIIa (Homo sapiens) (UniProt P00748). This is another data set of the same source.
The target of data set [11] is Neutrophil elastase (Homo sapiens) (UniProt P08246).
Data set [12] concerns the target Plasma kallikrein (Homo sapiens) (UniProt P03952).
The target of data set [13] is Plasmin (Homo sapiens) (UniProt P00747). The source holds these as a separate data set.
Data set [14] has as its target Trypsin (Bos taurus) (UniProt P00760). This is another data set of the same source.
Data set [15] deals with Cathepsin H (UniProt P09668).
Data set [16] has as its target Cathepsin H (UniProt P09668). The source holds these as a separate data set.
The target of data set [17] is Cathepsin B (UniProt P07858).
The target of data set [18] is Cathepsin L (UniProt P07711). The source holds these as a separate data set.
Target sequence in this assay (P07711 114-288, chain 1 of 2): as the sequence (P07711 114-288, chain 1 of 2) above
Target sequence in this assay (P07711 292-333, chain 2 of 2): as the sequence (P07711 292-333, chain 2 of 2) above
In data set [19] the target is Dipeptidyl peptidase I (UniProt P53634).
Data set [20] deals with Clostripain (Hathewaya histolytica) (UniProt P09870).
Data set [21] deals with Cathepsin L (UniProt P07711). This is another data set of the same source.
Target sequence in this assay (P07711 292-333): as the sequence (P07711 292-333, chain 2 of 2) above
Data set [22] has as its target Clostripain (UniProt P09870).
The target in data set [23] is Cathepsin B (UniProt P07858). This is another data set of the same source.
The target of data set [24] is Carboxypeptidase A (Bos taurus) (UniProt P00730).
Data set [25] has as its target Carboxypeptidase B (Sus scrofa) (UniProt P09955).
For data set [26], the target named is Factor XIIa (Homo sapiens) (UniProt P00748). This is another data set of the same source.
Data set [27] concerns the target Factor Xa (Homo sapiens) (UniProt P00742).
The target of data set [28] is Kallikrein (Homo sapiens) (UniProt P03952).
The target in data set [29] is Hageman factor (Homo sapiens) (UniProt P00748).
The target of data set [30] is β-Trypsin (Bos taurus) (UniProt P00760).
For data set [31], the target named is Trypsin (Bos taurus) (UniProt P00760). This is another data set of the same source.
For data set [32], the target named is Leukocyte elastase (UniProt P08246). This is another data set of the same source.
Data set [33] has as its target Chymotrypsin (Bos taurus) (UniProt P00766). The source holds these as a separate data set.
In data set [34] the target is Mast cell chymase (Homo sapiens) (UniProt P23946).
Data set [35] concerns the target Duadenase (Bos taurus) (UniProt P80219).
The target of data set [36] is Cathepsin G (Homo sapiens) (UniProt P08311). The source holds these as a separate data set.
Data set [37] has as its target Factor XIIa (Homo sapiens) (UniProt P00748). The source holds these as a separate data set.
Data set [38] deals with Plasma kallikrein (Homo sapiens) (UniProt P03952). The source holds these as a separate data set.
Data set [39] concerns the target Plasmin (Homo sapiens) (UniProt P00747). The source holds these as a separate data set.
Data set [40] addresses Chymotrypsin (Bos taurus) (UniProt P00766). The source holds these as a separate data set.
For data set [41], the target named is Trypsin (Bos taurus) (UniProt P00760). The source holds these as a separate data set.
In data set [42] the target is Chymotrypsin (Bos taurus) (UniProt P00766). This is another data set of the same source.
Data set [43] addresses Factor XIIa (Homo sapiens) (UniProt P00748). This is another data set of the same source.
In data set [44] the target is Trypsin (Bos taurus) (UniProt P00760). This is another data set of the same source.
Data set [45] deals with Plasmin (Homo sapiens) (UniProt P00747). The source holds these as a separate data set.
Data set [46] concerns the target Kallikrein 4 (Homo sapiens) (UniProt Q9Y5K2).
For data set [47], the target named is Matriptase (Homo sapiens) (UniProt Q9Y5Y6).
Data set [48] deals with β-tryptase (Homo sapiens) (UniProt Q15661).
The target of data set [49] is Trypsin (Bos taurus) (UniProt P00760). This is another data set of the same source.
In data set [50] the target is Factor XIIa (Homo sapiens) (UniProt P00748). This is another data set of the same source.
Data set [51] has as its target Plasma kallikrein (Homo sapiens) (UniProt P03952). The source holds these as a separate data set.
Data set [52] deals with Trypsin (Bos taurus) (UniProt P00760). This is another data set of the same source.
Data set [53] deals with Factor Xa (Homo sapiens) (UniProt P00742). The source holds these as a separate data set.
The target in data set [54] is Factor XIIa (Homo sapiens) (UniProt P00748). This is another data set of the same source.
Data set [55] concerns the target Trypsin (Bos taurus) (UniProt P00760). The source holds these as a separate data set.

Read-outs that look alike come from different tables or passages of the source. Some results are limits rather than exact numbers.

LLDTI-II, sequence (P26771 2-30): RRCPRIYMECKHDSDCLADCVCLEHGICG
EcTI, sequence (P86451 1-134): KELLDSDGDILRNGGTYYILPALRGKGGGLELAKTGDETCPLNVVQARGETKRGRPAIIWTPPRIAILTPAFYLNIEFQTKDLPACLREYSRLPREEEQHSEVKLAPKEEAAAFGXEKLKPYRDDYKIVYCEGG
EcTI, sequence (P86451 135-174): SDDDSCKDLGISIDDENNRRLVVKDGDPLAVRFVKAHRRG
SKTI-31, sequence (P01070 25-205): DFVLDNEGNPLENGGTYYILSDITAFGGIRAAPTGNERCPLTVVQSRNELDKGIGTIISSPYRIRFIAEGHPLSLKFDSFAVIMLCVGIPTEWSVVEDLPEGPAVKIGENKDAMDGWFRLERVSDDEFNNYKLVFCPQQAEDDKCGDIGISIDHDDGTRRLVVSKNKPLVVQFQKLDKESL
Plasma kallikrein (Homo sapiens), sequence (P03952 391-638): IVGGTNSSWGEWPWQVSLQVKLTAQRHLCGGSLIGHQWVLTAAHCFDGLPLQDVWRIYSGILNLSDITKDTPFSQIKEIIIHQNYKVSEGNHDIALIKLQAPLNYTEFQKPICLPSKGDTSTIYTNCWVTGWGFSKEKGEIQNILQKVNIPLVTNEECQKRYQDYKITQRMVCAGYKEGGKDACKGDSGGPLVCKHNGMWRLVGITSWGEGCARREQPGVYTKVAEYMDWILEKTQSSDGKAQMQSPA
LCTI-II, sequence (P25850 whole entry): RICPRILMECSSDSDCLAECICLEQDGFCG
ATSI, sequence (P80211 whole entry): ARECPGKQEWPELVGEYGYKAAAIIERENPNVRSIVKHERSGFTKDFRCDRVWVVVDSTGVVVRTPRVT
Cruzipain inhibitor (BbCI), sequence (P83051 whole entry): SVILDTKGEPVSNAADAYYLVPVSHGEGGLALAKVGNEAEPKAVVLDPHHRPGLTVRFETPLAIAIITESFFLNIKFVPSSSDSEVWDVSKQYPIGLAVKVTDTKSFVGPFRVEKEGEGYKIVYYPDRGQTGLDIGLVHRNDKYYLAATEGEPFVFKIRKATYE
Factor XIIa (Homo sapiens), sequence (P00748 whole entry, looked up): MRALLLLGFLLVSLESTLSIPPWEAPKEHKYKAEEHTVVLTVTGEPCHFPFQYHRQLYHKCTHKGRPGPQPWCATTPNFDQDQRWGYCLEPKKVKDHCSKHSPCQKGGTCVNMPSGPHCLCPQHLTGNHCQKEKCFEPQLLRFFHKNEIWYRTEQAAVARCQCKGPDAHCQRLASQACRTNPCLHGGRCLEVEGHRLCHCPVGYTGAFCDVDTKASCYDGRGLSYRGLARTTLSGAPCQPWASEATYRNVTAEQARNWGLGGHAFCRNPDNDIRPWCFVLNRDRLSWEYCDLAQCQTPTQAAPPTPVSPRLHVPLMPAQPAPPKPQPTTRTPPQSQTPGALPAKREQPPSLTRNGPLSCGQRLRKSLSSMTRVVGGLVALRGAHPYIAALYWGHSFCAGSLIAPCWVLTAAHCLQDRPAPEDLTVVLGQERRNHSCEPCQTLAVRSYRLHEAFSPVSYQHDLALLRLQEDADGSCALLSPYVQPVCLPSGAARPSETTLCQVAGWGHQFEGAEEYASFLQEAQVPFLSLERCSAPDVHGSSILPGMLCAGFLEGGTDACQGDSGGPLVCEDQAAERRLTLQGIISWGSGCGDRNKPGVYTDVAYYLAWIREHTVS
MCoTI-II, sequence (P82409 whole entry): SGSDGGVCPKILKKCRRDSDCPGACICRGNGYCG
Plasmin (Homo sapiens), sequence (P00747 581-810): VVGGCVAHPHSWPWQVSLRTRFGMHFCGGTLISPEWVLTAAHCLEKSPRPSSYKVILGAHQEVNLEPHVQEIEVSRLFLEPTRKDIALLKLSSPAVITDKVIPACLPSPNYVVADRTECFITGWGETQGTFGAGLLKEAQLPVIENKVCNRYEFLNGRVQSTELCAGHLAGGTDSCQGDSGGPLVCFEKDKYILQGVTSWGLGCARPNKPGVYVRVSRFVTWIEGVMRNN
Trypsin (Bos taurus), sequence (P00760 149-246): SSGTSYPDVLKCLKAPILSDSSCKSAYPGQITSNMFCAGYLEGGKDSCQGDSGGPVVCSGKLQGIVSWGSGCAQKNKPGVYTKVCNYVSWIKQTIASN
Soybean BBI, sequence (P01055 40-110): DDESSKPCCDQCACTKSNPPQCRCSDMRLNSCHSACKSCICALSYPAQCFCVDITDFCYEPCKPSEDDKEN
CMTI-I, sequence (P01074 whole entry): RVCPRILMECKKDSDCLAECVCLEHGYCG
Enterolobium EcTI, sequence (P86451 1-134): as the sequence (P86451 1-134) above
Enterolobium EcTI, sequence (P86451 135-174): as the sequence (P86451 135-174) above
Potato CPI, sequence (P01075 whole entry): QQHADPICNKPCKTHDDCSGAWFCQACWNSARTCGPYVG
CMTI-V, sequence (P19873 whole entry): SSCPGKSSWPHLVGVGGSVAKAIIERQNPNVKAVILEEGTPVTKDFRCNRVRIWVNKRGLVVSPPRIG
Leukocyte elastase, sequence (P08246 30-267): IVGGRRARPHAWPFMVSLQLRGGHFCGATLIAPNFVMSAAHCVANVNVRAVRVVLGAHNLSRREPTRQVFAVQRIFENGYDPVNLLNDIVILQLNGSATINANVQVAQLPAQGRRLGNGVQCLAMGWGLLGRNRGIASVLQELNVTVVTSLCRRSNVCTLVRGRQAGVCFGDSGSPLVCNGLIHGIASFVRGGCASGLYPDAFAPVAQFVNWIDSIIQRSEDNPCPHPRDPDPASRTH
Oryzacystatin-II, sequence (P20907 whole entry): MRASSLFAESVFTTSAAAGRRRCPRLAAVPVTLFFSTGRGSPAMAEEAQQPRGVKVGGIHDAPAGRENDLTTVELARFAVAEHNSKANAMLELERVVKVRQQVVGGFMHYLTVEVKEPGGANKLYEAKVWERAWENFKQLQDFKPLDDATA
Cathepsin G (Homo sapiens), sequence (P08311 21-243): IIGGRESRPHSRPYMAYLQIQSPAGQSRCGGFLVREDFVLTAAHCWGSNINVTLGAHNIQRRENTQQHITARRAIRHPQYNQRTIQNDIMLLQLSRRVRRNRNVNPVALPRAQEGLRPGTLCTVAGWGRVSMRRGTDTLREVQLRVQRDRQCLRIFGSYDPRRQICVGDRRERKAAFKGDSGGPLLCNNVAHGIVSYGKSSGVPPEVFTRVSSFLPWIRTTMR
Factor Xa (Homo sapiens), sequence (P00742 235-488): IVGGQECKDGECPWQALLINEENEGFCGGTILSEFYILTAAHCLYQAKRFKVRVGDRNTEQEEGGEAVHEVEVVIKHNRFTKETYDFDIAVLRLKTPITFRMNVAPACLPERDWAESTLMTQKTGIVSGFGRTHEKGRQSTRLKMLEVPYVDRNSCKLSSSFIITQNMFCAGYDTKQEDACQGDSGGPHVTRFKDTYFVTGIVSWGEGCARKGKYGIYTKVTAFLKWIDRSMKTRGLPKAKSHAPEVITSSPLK
Carboxypeptidase A (Bos taurus), sequence (P00730 111-419): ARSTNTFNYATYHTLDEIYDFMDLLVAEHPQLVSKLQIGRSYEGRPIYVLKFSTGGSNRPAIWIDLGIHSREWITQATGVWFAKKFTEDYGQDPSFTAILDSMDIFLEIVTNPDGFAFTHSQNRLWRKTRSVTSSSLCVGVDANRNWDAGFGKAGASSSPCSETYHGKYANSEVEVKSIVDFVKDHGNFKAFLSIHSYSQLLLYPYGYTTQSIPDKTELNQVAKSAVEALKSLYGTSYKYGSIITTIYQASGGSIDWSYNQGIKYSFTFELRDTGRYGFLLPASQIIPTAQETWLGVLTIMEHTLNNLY
Hageman factor (Homo sapiens), sequence (P00748 20-372, chain 1 of 2): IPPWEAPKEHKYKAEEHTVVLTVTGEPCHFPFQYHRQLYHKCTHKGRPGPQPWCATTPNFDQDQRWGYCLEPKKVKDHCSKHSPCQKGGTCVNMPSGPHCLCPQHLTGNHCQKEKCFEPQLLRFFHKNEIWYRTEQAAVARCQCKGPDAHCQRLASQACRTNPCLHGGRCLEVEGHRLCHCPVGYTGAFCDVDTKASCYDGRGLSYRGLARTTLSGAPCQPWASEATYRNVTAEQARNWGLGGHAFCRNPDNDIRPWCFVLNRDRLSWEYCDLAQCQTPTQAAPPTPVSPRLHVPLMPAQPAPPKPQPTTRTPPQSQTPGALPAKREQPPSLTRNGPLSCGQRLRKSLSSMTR
Hageman factor (Homo sapiens), sequence (P00748 373-615, chain 2 of 2): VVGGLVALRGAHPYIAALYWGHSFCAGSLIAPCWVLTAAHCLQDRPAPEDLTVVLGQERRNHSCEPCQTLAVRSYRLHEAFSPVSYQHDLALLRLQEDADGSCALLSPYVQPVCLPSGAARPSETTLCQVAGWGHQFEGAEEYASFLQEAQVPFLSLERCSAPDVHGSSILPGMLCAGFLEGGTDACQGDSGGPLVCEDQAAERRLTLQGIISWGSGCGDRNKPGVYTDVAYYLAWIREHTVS
VhTI, sequence (P85981 whole entry): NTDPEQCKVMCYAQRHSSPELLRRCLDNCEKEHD

For ATSI (from UniProt P80211), the Ki in data set [1] was 440 nM; in data set [2], 0.34 nM; in data set [3] it was 38 nM; in data set [4], 0.41 nM; in data set [5], 120 nM.

Consider “Cruzipain inhibitor (BbCI) (from UniProt P83051)”, for which the Ki was 2.2 nM in data set [6], 5.3 nM in [7], 4 nM in data set [8] and 2.2 nM in [9].

With EcTI (from UniProt P86451), the Ki is 82 nM in data set [10], 55 nM in data set [11], 6.1 nM in data set [12] and 9.4 nM in data set [13].

Turning to RATI (from UniProt P01087), in [14], the Ki is 1.2 nM.

With Oryzacystatin-II (from UniProt P20907), the Ki in data set [15] and in data set [16] was 25 nM throughout.

PCPI 8.3 (from UniProt P20347): the Ki in data set [17] was 320 nM; in data set [18] it was 0.07 nM; in [19] it was more than 500 nM; in data set [20], more than 500 nM; in [21], 0.07 nM; in data set [22], more than 500 nM. Besides, the Ki in [23] is 320 nM.

As to Potato CPI (from UniProt P01075), the inhibition constant (Ki) was 2 nM in data set [24] and 4 nM in [25].

As to LCTI-II (from UniProt P25850), the Ki in [26] is 75 nM; in data set [27], 780000 nM; in [28], 0.096 nM.

Turning to CMTI-I (from UniProt P01074), the Kd in [29] is 41 nM; in data set [30], 13 nM.

Turning to Soybean BBI (from UniProt P01055), the Ki in data set [31] was 4 nM; in [32], 2.3 nM; in [33], 29 nM; in [34], 0.5 nM; in data set [35] it was 0.4 nM; in data set [36], 6400 nM.

Take SKTI-31 (from UniProt P01070): the Ki in data set [37] was 1400 nM; in data set [38], 5.7 nM; in data set [39] it was 190 nM; in data set [40] it was 70 nM.

In the case of Enterolobium EcTI (from UniProt P86451), the Ki in data set [41] is 0.8 nM; in [42], 1.1 nM.

MCoTI-II (from UniProt P82409): the Ki was 750 nM in data set [43]; 0.0023 nM in data set [44]; 28 nM in data set [45]; 1.6 nM in data set [46]; 9 nM in data set [47]; 600 nM in data set [48].

Turning to VhTI (from UniProt P85981), the Ki in data set [49] was less than 1 nM.

LLDTI-II (from UniProt P26771): the Ki in [50] is 1400 nM; in data set [51], 27000 nM; in [52], 0.096 nM; in [53] it was 41000 nM.

Take CMTI-V (from UniProt P19873): the Ki is 41 nM in data set [54] and 16 nM in [55].
